# Source: the DeepSol protein solubility set
# Test: soluble on expression in E. coli; label from the status in PepcDB or PDB records
row,Sequence,soluble on expression in E. coli
1,SLSPAPTTMDFTPAPLEDTSSRPQFCKWPCECPPSPPRCPLGVSLITDGCECCKMCAQQLGDNCTEAAICDPHRGLYCDYSGDRPRYAIGVCAQVVGVGCVLDGVRYNNGQSFQPNCKYNCTCIDGAVGCTPLCLRVRPPRLWCPHPRRVSIPGHCCEQWVCEDDAKRPRKTAPRDTGAFDAVGEG,soluble
2,SLVRNGRIAFAGPESDLPDDLSTADETTDCGGRWITPALIDCHTHLVFGGNRAMEFEMRLNGATYEEIAKAGGGIVSSVRDTRALSDEVLVAQALPRLDTLLSEGVSTIEIKSGYGLDIETELKMLRVARRLETLRPVRIVTSYLAAHATPADYKGRNADYITDVVLPGLEKAHAEGLADAVDGFCEGIAFSVKEIDRVFAAAQQRGLPVKLHAEQLSNLGGAELAASYNALSADHLEYLDETGAKALAKAGTVAVLLPGAFYALREKQLPPVQALRDAGAEIALATDCNPGTSPLTSLLLTMNMGATLFRMTVEECLTATTRNAAKALGLLAETGTLEAGKSADFAIWDIERPAELVYRIGFNPLHARIFKGQKVSP,not soluble
3,SMARENGESSSSWKKQAEDIKKIFEFKETLGTGAFSEVVLAEEKATGKLFAVKCIPKKALKGKESSIENEIAVLRKIKHENIVALEDIYESPNHLYLVMQLVSGGELFDRIVEKGFYTEKDASTLIRQVLDAVYYLHRMGIVHRDLKPENLLYYSQDEESKIMISDFGLSKMEGKGDVMSTACGTPGYVAPEVLAQKPYSKAVDCWSIGVIAYILLCGYPPFYDENDSKLFEQILKAEYEFDSPYWDDISDSAKDFIRNLMEKDPNKRYTCEQAARHPWIAGDTALNKNIHESVSAQIRKNFAKSKWRQAFNATAVVRHMRKLHLGSSLDSSNA,soluble
4,SMEDPDQLYTTLKNLLAQIKSHPSAWPFMEPVKKSEAPDYYEVIRFPIDLKTMTERLRSRYYVTRKLFVADLQRVIANCREYNPPDSEYCRCASALEKFFYFKLKEGGLIDK,soluble
5,SMNSNMGSDSGTMGSDSDEENVAARASPEPELQLRPYQMEVAQPALEGKNIIICLPTGSGKTRVAVYIAKDHLDKKKKASEPGKVIVLVNKVLLVEQLFRKEFQPFLKKWYRVIGLSGDTQLKISFPEVVKSCDIIISTAQILENSLLNLENGEDAGVQLSDFSLIIIDECHHTNKEAVYNNIMRHYLMQKLKNNRLKKENKPVIPLPQILGLTAS,soluble
6,SMPNHQKVVLVGDGAVGSSYAFAMAQQGIAEEFVIVDVVKDRTKGDALDLEDAQAFTAPKKIYSGEYSDCKDADLVVITAGAPQKPGESRLDLVNKNLNILSSIVKPVVDSGFDGIFLVAANPVDILTYATWKFSGFPKERVIGSGTSLDSSRLRVALGKQFNVDPRSVDAYIMGEHGDSEFAAYSTATIGTRPVRDVAKEQGVSDDDLAKLEDGVRNKAYDIINLKGATFYGIGTALMRISKAILRDENAVLPVGAYMDGQYGLNDIYIGTPAIIGGTGLKQIIESPLSADELKKMQDSAATLKKVLNDGLAELENK,soluble
7,SMQEKREELRMRSENQAMNIVLQRQYDQYRLSIDNIELLRREFHDLKHYMIAIRSEQDPKKKEQYLLEMEEAIHTQEALTNTGNSVLDVVLTTKSTYCMQKHITFTCMADGKLISFMHVKDICSIFGNALDNAIECVSQFDDPEKRLITLSMYQKNQLLMIQCENYTETSLSLKPDQLPTTTKQNAGYHGYGLKSIQQAARKYGGSMTLHAEDNWFTLQVLIPVES,not soluble
8,SMQVERESISRLMQNYEKINVNEITRFSDFPLSKKTLKGLQEAQYRLVTEIQKQTIGLALQGKDVLGAAKTGSGKTLAFLVPVLEALYRLQWTSTDGLGVLIISPTRELAYQTFEVLRKVGKNHDFSAGLIIGGKDLKHEAERINNINILVCTPGRLLQHMDETVSFHATDLQMLVLDEADRILDMGFADTMNAVIENLPKKRQTLLFSATQTKSVKDLARLSLKNPEYVWVHEKA,soluble
9,SMSETFDVELTKNVQGLGITIAGYIGDKKLEPSGIFVKSITKSSAVEHDGRIQIGDQIIAVDGTNLQGFTNQQAVEVLRHTGQTVLLTLMRRGETSV,soluble
10,SMSGMKSSKSKDVLSAAEVMQWSQSLEKLLANQTGQNVFGSFLKSEFSEENIEFWLACEDYKKTESDLLPCKAEEIYKAFVHSDAAKQINIDFRTRESTAKKIKAPTPTCFDEAQKVIYTLMEKDSYPRFLKSDIYLNLLNDLQA,soluble
11,SMSKHHKLARSLRSGPSDHDLKPNAATRDQLNIIVSYPPTKQLTYEEQDLVWKFRYYLTNQEKALTKFLKCVNWDLPQEAKQALELLGKWKPMDVEDSLELLSSHYTNPTVRRYAVARLRQADDEDLLMYLLQLVQALKYENFDDIKNGLEPTKKDSQSSVSENVSNSGINSAEIDSSQIITSPLPSVSSPPPASKTKEVPDGENLEQDLCTFLISRACKNSTLANYLYWYVIVECEDQDTQQRDPKTHEMYLNVMRRFSQALLKGDKSVRVMRSLLAAQQTFVDRLVHLMKAVQRESGNRKKKNERLQALLGDNEKMNLSDVELIPLPLEPQVKIRGIIPETATLFKSALMPAQLFFKTEDGGKYPVIFKHGDDLRQDQLILQIISLMDKLLRKENLDLKLTPYKVLATSTKHGFMQFIQSVPVAEVLDTEGSIQNFFRKYAPSENGPNGISAEVMDTYVKSCAGYCVITYILGVGDRHLDNLLLTKTGKLFHIDFGYILGRDPKPLPPPMKLNKEMVEGMGGTQSEQYQEFRKQCYTAFLHLRRYSNLILNLFSLMVDANIPDIALEPDKTVKKVQDKFRLDLSDEEAVHYMQSLIDESVHALFAAVVEQIH,soluble
12,SMSNTTIEDEDVKARKQEIIKVTEQLIEAINNGDFEAYTKICDPGLTAFEPEALGNLVEGMDFHRFYFENALSKSNKPIHTIILNPHVHLVGDDAACIAYIRLTQYMDGSGMPKTMQSEETRVWHRRDGKWQNVHFHRSGSPTV,soluble
13,SMSSHDGLMVFTGNANPALAQEVVKILGIPLGKAMVSRFSDGEIQVEIQENVRGKDVFVLQSTCAPTNDNLMELMIMVDALKRASAGRITAAIPYFGYARQDRRPRSARVAISAKVVANMLEIAGVERIITMDLHADQIQGFFDIPVDNIYATPILLGDLRKQNYPDLLVVSPDVGGVVRARALAKQLNCDLAIIDKRRPKANVAEVMNIIGEVEGRTCVIMDDMVDTAGTLCKAAQVLKERGAKQVFAYATHPVLSGGAADRIAASALDELVVTDTIPLSAESLACPKIRALSSAGLLAETFSRIRRGDSVMSLFAES,soluble
14,SMSYESPFHLNDAVAIVTGAAAGIGRAIAGTFAKAGASVVVTDLKSEGAEAVAAAIRQAGGKAIGLECNVTDEQHREAVIKAALDQFGKITVLVNNAGGGGPKPFDMPMSDFEWAFKLNLFSLFRLSQLAAPHMQKAGGGAILNISSMAGENTNVRMASYGSSKAAVNHLTRNIAFDVGPMGIRVNAIAPGAIKTDALATVLTPEIERAMLKHTPLGRLGEAQDIANAALFLCSPAAAWISGQVLTVSGGGVQELD,soluble
15,SMTIGRAKVYATLSKIFYHLFYDEAIPKDCREIIEKFGEIDFNLRSVLVRELRGSVLIKDMPQSLAEVYESVMKDFYERYGFQASELHADHIAVELAFMSKLVEREISLAQQMKEEELYKIRAAQHRFIKAHLQPLVKNLPSAPLLNFVRDFVREDAKYLYSSLVGEKNEGADNN,soluble
16,SMTTTTTTISQHNFYGAGDSETCISIIENLKEEYGLFVWPCSVILAEYVWQHRSRFRDSSILELGAGTSLPGLVAAKVGANVTLTDDATKPEVLDNMRRVCELNKLNCNVLGLTWGVWDAPILDLRPNIILGADVLYDSSGSFHLFLFWVLAFSFSPCE,soluble
17,SNAAEHVRLATTTSTYHSGLLDYLLPQFEKDTGYKVDVIAAGTGKALKMGENGDVDLVMTHAPKAEGTFVEKGYGVLPRKLMYNDFVIVGPKADPAKIKDDESVLDVFKEIANKNATFISRGDDSGTHKKEMGFWAQTKIEPNFGGYRSVGQGMGPTLNMASEMQGYTMSDRGTWLAYQNKLDLEILFQGDEKLFNPYQVILVNPERYPTINYQGAKAFSDWLVNPRGQELINGFRL,soluble
18,SNAKIGVLQFVSHPSLDLIYKGIQDGLAEEGYKDDQVKIDFMNSEGDQSKVATMSKQLVANGNDLVVGIATPAAQGLASATKDLPVIMAAITDPIGANLVKDLKKPGGNVTGVSDHNPAQQQVELIKALTPNVKTIGALYSSSEDNSKTQVEEFKAYAEKAGLTVETFAVPSTNEIASTVTVMTSKVDAIWVPIDNTIASGFPTVVSSNQSSKKPIYPSATAMVEVGGLASVVIDQHDLGVATGKMIVQVLKGAKPADTPVNVFSTGKSVINKKIAQELGITIPESVLKEAGQVI,soluble
19,SNAMANTSSDWAGAPQNASADGEFVRDTNYIDDRIVADVPAGSEPIAQEDGTFHWPVEAGRYRLVAARACPWAHRTVITRRLLGLENVISLGLTGPTHDVRSWTFDLDPNHLDPVLQIPRLQDAYFNRFPDYPRGITVPALVEESSKKVVTNDYPSITIDFNLEWKQFHREGAPNLYPAELREEMAPVMKRIFTEVNNGVYRTGFAGSQEAHNEAYKRLWVALDWLEDRLSTRRYLMGDHITEADIRLYPTLVRFDAVYHGHFKCGRNKITEMPNLWGYLRDLFQTPGFGDTTDFTEIKQHYYITHAEINPTRIVPVGPDLSGFATPHGREKLGGSPFAEGVTLPGPIPAGEEVKNPEPFQK,soluble
20,SNAMATFMTEDFLLKNDIARTLYHKYAAPMPIYDFHCHLSPQEIADDRRFDNLGQIWLEGDHYKWRALRSAGVDESLITGKETSDYEKYMAWANTVPKTLGNPLYHWTHLELRRPFGITGTLFGPDTAESIWTQCNEKLATPAFSARGIMQQMNVRMVGTTDDPIDSLEYHRQIAADDSIDIEVAPSWRPDKVFKIELDGFVDYLRKLEAAADVSITRFDDLRQALTRRLDHFAACGCRASDHGIETLRFAPVPDDAQLDAILGKRLAGETLSELEIAQFTTAVLVWLGRQYAARGWVMQLHIGAIRNNNTRMFRLLGPDTGFDSIGDNNISWALSRLLDSMDVTNELPKTILYCLNPRDNEVLATMIGNFQGPGIAGKVQFGSGWWFNDQKDGMLRQLEQLSQMGLLSQFVGMLTDSRSFLSYTRHEYFRRILCNLLGQWAQDGEIPDDEAMLSRMVQDICFNNAQRYFTIK,soluble
21,SNAMKEKVVIITGGSSGMGKGMATRFAKEGARVVITGRTKEKLEEAKLEIEQFPGQILTVQMDVRNTDDIQKMIEQIDEKFGRIDILINNAAGNFICPAEDLSVNGWNSVINIVLNGTFYCSQAIGKYWIEKGIKGNIINMVATYAWDAGPGVIHSAAAKAGVLAMTKTLAVEWGRKYGIRVNAIAPGPIERTGGADKLWISEEMAKRTIQSVPLGRLGTPEEIAGLAYYLCSDEAAYINGTCMTMDGGQHLHQYPF,soluble
22,SNAMKFSEFRYERPDIAQLQASFQEALDSFRRAGSAALQHEAMKRINELRRRYSTMANLCHIRHTIDTNDEFYKKEQDFFDETEPVVKGLVNDYYRALVSSPFRAELEQVWGKQLFALAETQLKTYAPVIVEDLQKENKLASEYTKLIASAKIMFEGEERTLAQLQPFVESPDRAMRQRASEARFSFFKDYEKELDELYDELVHVRTAIARKLGFQNFVELGYARLGRTDYNADMVAGYRRQVKTHIVPLAAKLRERQRQRIQVEKLYYYDEPFMFPTGNPTPKGDADWIVQNGRQMYEELSPETGEFFRYMVEHELMDLVAKKGKAGGGYCTYIDDYKAPFIFSNFTGTSGDIDVLTHEAGHAFQVYESRHYDIPEYNWPTLEACEIHSMSMEFFTWPWMELFFGEDADKYRFAHLSDALLFLPYGVAVDEFQHAVYENPDMTPAERKSVWRNIEKAYLPTRDYADHDYLERGGFWQRQGHIYTDPFYYIDYTLAQVCAFQFWKRAQEDRASAWRDYVALCRLGGSRPFTELVKSANLQSPFADGAVASVVGHIERWLDSVDDKAL,soluble
